THAP1 transcriptional activity data for 14 variants are collected here from the supplement of paper PMC11811203.

The chains are these.
B1: THAP1; numbered along this chain (parent)
chain: MVQSCSAYGCKNRYDKDKPVSFHKFPLTRPSLCKEWEAAVRRKNFKPTKYSSICSEHFTPDCFKRECNNKLLKENAVPTIFLCTEPHDKKEDLLEPQEQLPPPPLPPPVSQVDAAIGLLMPPLQTPVNLSVFCDHNYTVEDTMHQRKRIHQLEQQVEKLRKKLKTAQQRCRRQERQLEKLKEVVHFQKEKDDVSERGYVILPNDYFEIVEVPA

Variants of B1 are the subject of the series. The series is described as follows: THAP1 transcriptional activity (GFP+/GFP- enrichment relative to wild-type constructs) (ratio to WT); higher = more THAP1 activity (PSMB5 reporter activation). To be noted: with PSMB5 promoter-GFP reporter. A digest of the protocol: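 Variants were counted by Illumina sequencing of genomic DNA amplicons from BFP+ cells sorted into GFP-bright and GFP-dim bins five days after lentiviral transduction, in duplicate at MOI ~0.3. The library changed each of residues 2–213 of human THAP1 to all 20 amino acids and was introduced into THAP1-knockout HEK-293T cells with mClover3 knocked in at endogenous PSMB5. Activity equals the replicate-mean bright/dim read fold change over the mean of wild-type synonymous constructs.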
On to MVQSCSAYGCKNRYDKDKPVSFHKFPLTRPSLCKEWEAAVRRKNFKPTKYSSICSEHFTPDCFKRECNNKLLKENAVPTIFLCTEPHDKKEDLLEPQEQLPPPPLPPPVSQVDAAIGLLMPPLQTPVNLSVFCDHNYTVEDTMHQRKRIHQLEQQVEKLRKKLKTAQQRCRRQERQLEWLKEVVHFQKEKDDVSERGYVILPNDYFEIVEVPA [K179W], for which the THAP1 transcriptional activity came out at 0.364.
For the variant MVQSCSAYGCKNRYDKDKPVSFHKFPLTRPSLCKEWEAAVRRKNFKPTKYSSICSEHFTPDCFKRECNNKLLKENAVPTIFLCTEPHDKKEDLLEPQEQLPPPPLPPPVSQVDAAIGLLMPPLQTPVNLSVFCDHNYTVEDTMHQRKRIHQLEQQVEKLRKKLKTAQQRCRRQERQLEGLKEVVHFQKEKDDVSERGYVILPNDYFEIVEVPA [K179G], the THAP1 transcriptional activity is 0.4.
For MVQSCSAYGCKNRYDKDKPVSFHKFPLTRPSLCKEWEAAVRRKNFKPTKYSSICSEHFTPDCFKRECNNKLLKENAVPTIFLCTEPHDKKEDLLEPQEQLPPPPLPPPVSQVDAAIGLLMPPLQTPVNLSVFCDHNYTVEDTMHQRKRIHQLEQQVEKLRKKLKTAQQRCRRQERQLELLKEVVHFQKEKDDVSERGYVILPNDYFEIVEVPA [K179L], the THAP1 transcriptional activity was 0.546.
In the case of MVQSCSAYGCKNRYDKDKPVSFHKFPLTRPSLCKEWEAAVRRKNFKPTKYSSICSEHFTPDCFKRECNNKLLKENAVPTIFLCTEPHDKKEDLLEPQEQLPPPPLPPPVSQVDAAIGLLMPPLQTPVNLSVFCDHNYTVEDTMHQRKRIHQLEQQVEKLRKKLKTAQQRCRRQERQLEALKEVVHFQKEKDDVSERGYVILPNDYFEIVEVPA [K179A], the THAP1 transcriptional activity was determined as 0.727.
Consider MVQSCSAYGCKNRYDKDKPVSFHKFPLTRPSLCKEWEAAVRRKNFKPTKYSSICSEHFTPDCFKRECNNKLLKENAVPTIFLCTEPHDKKEDLLEPQEQLPPPPLPPPVSQVDAAIGLLMPPLQTPVNLSVFCDHNYTVEDTMHQRKRIHQLEQQVEKLRKKLKTAQQRCRRQERQLEFLKEVVHFQKEKDDVSERGYVILPNDYFEIVEVPA [K179F], for which the THAP1 transcriptional activity came to 0.421.
As for MVQSCSAYGCKNRYDKDKPVSFHKFPLTRPSLCKEWEAAVRRKNFKPTKYSSICSEHFTPDCFKRECNNKLLKENAVPTIFLCTEPHDKKEDLLEPQEQLPPPPLPPPVSQVDAAIGLLMPPLQTPVNLSVFCDHNYTVEDTMHQRKRIHQLEQQVEKLRKKLKTAQQRCRRQERQLEPLKEVVHFQKEKDDVSERGYVILPNDYFEIVEVPA [K179P], the figure is 0.213; as for MVQSCSAYGCKNRYDKDKPVSFHKFPLTRPSLCKEWEAAVRRKNFKPTKYSSICSEHFTPDCFKRECNNKLLKENAVPTIFLCTEPHDKKEDLLEPQEQLPPPPLPPPVSQVDAAIGLLMPPLQTPVNLSVFCDHNYTVEDTMHQRKRIHQLEQQVEKLRKKLKTAQQRCRRQERQLECLKEVVHFQKEKDDVSERGYVILPNDYFEIVEVPA [K179C], 0.34.
To MVQSCSAYGCKNRYDKDKPVSFHKFPLTRPSLCKEWEAAVRRKNFKPTKYSSICSEHFTPDCFKRECNNKLLKENAVPTIFLCTEPHDKKEDLLEPQEQLPPPPLPPPVSQVDAAIGLLMPPLQTPVNLSVFCDHNYTVEDTMHQRKRIHQLEQQVEKLRKKLKTAQQRCRRQERQLETLKEVVHFQKEKDDVSERGYVILPNDYFEIVEVPA [K179T] belongs 0.568; to MVQSCSAYGCKNRYDKDKPVSFHKFPLTRPSLCKEWEAAVRRKNFKPTKYSSICSEHFTPDCFKRECNNKLLKENAVPTIFLCTEPHDKKEDLLEPQEQLPPPPLPPPVSQVDAAIGLLMPPLQTPVNLSVFCDHNYTVEDTMHQRKRIHQLEQQVEKLRKKLKTAQQRCRRQERQLEYLKEVVHFQKEKDDVSERGYVILPNDYFEIVEVPA [K179Y], 0.661; to MVQSCSAYGCKNRYDKDKPVSFHKFPLTRPSLCKEWEAAVRRKNFKPTKYSSICSEHFTPDCFKRECNNKLLKENAVPTIFLCTEPHDKKEDLLEPQEQLPPPPLPPPVSQVDAAIGLLMPPLQTPVNLSVFCDHNYTVEDTMHQRKRIHQLEQQVEKLRKKLKTAQQRCRRQERQLEHLKEVVHFQKEKDDVSERGYVILPNDYFEIVEVPA [K179H], 0.616.
To MVQSCSAYGCKNRYDKDKPVSFHKFPLTRPSLCKEWEAAVRRKNFKPTKYSSICSEHFTPDCFKRECNNKLLKENAVPTIFLCTEPHDKKEDLLEPQEQLPPPPLPPPVSQVDAAIGLLMPPLQTPVNLSVFCDHNYTVEDTMHQRKRIHQLEQQVEKLRKKLKTAQQRCRRQERQLENLKEVVHFQKEKDDVSERGYVILPNDYFEIVEVPA [K179N] belongs 0.51.
With MVQSCSAYGCKNRYDKDKPVSFHKFPLTRPSLCKEWEAAVRRKNFKPTKYSSICSEHFTPDCFKRECNNKLLKENAVPTIFLCTEPHDKKEDLLEPQEQLPPPPLPPPVSQVDAAIGLLMPPLQTPVNLSVFCDHNYTVEDTMHQRKRIHQLEQQVEKLRKKLKTAQQRCRRQERQLEVLKEVVHFQKEKDDVSERGYVILPNDYFEIVEVPA [K179V], the THAP1 transcriptional activity was 0.388.
To MVQSCSAYGCKNRYDKDKPVSFHKFPLTRPSLCKEWEAAVRRKNFKPTKYSSICSEHFTPDCFKRECNNKLLKENAVPTIFLCTEPHDKKEDLLEPQEQLPPPPLPPPVSQVDAAIGLLMPPLQTPVNLSVFCDHNYTVEDTMHQRKRIHQLEQQVEKLRKKLKTAQQRCRRQERQLEMLKEVVHFQKEKDDVSERGYVILPNDYFEIVEVPA [K179M] belongs 0.465.
As for MVQSCSAYGCKNRYDKDKPVSFHKFPLTRPSLCKEWEAAVRRKNFKPTKYSSICSEHFTPDCFKRECNNKLLKENAVPTIFLCTEPHDKKEDLLEPQEQLPPPPLPPPVSQVDAAIGLLMPPLQTPVNLSVFCDHNYTVEDTMHQRKRIHQLEQQVEKLRKKLKTAQQRCRRQERQLEDLKEVVHFQKEKDDVSERGYVILPNDYFEIVEVPA [K179D], the figure is 0.403.
